The source of these data is patent publication US20230390363A1, “Compounds, Compositions and Methods of Use to Treat Spinal Fusions” (PURDUE RESEARCH FOUNDATION, priority 2020, published 2023).

Non-standard residues stand in square brackets, D forms with d. Aib = CC(C)(N)C(=O)O

In the experiment the test system is posterolateral spinal fusion of L4-L5. In words: Posterolateral spinal fusion of L4-L5 in rats: micro-CT and manual palpitation after treatment. The format is in vivo, rat. Conditions: for spinal fusion (micro-CT, manual palpitation): plain collagen matrix, rhBMP-2 10 μg soaked in matrix. As for the experimental part: FIG. 6, panels A-C show three-dimensional reconstructions of micro-CT scans of a posterolateral spinal fusion of L4-L5 in a rat treated with a plain collagen matrix and a compound of SEQ ID NO: 2 for eight weeks. In some embodiments, SEQ ID NO: 2 was dosed (e.g., in rodents) at 33 nmol/kg twice a week. […] In some embodiments, the collagen matrix was applied during surgery. […] In some embodiments, phosphate-buffered saline was dosed at a 1× concentration twice a week in the same volume as SEQ ID NO: 2. […] Scores were assigned 0-5 on osteointegration, density, and bridging of both bilateral spinal fusions in microCT scans of the rats as determined by an individual who was blinded to the treatment and reviewed random samples. The total score is the sum of all five scores combined. […] The density of the scan was assigned based on a standard curve generated by a phantom hydroxyapatite standard set. A bilateral posterolateral lumbar spinal fusion was performed under aseptic conditions using isoflurane as an anesthetic. The skin surrounding the L2-L6 region on the back was shaved and disinfected using a Betadine solution followed by an alcohol pad. A 3-cm incision extending from the L3 to L6 vertebrae was made in the skin in this prepared area. The muscle on the vertebral body between the spinous process and the transverses process was bluntly dissected away from the vertebral body to expose the transverses processes. Using a low-speed burr, the L4 and L5 transverse processes cortical bone was removed in addition to the facia joint between the two vertebrae. The burr removed the surface layer of the bone. This process is known as decortication and was done to allow for direct regeneration of bone tissue. Following decortication, a drug-soaked collagen sponge was placed on each side of the vertebrae. A 5×7.5-mm collagen sponge was soaked to saturation in the drugs for 10 minutes. The collagen sponge (RCM6 membranes from ACE surgical supplies) served as a scaffold to aid in the fusion of the vertebrae. Mineralized collagen scaffolds (supplied by Houston Methodist, Houston, TX) and collagen scaffolds wrapped around anorganic bone granules (InterOss bone granules; SigmaGraft Inc. Biomaterials, Fullerton, CA) were also separately used. The inter-muscle was closed with resorbable sutures. The exterior wound was then sutured closed using a nylon suture. Subcutaneous buprenorphine (0.05-0.1 mg/kg) was then administered directly after the operation and was repeated every 12 hours for the next 3 days post-surgery. Fracture healing was assessed using micro-CT (Scanco Medical Ag or PerkinElmer). The anesthetized animal was scanned for two minutes with the PerkinElmer Quantum FX micro-CT at high resolution with a voxel size of 10 μM at 90 kV and 88 uA and an Al 0.5 mm+Cu 0.06 mm filter. The scanning detector rate was 117 fps. The images were analyzed in ImageJ using the BoneJ package. Morphometric parameters were quantified in an ROI that included just the fracture callus. Trabecular thickness (Tb.Th.), trabecular spacing (Tb. Sp.), total volume (TV), and volume of calcified callus (BV) were calculated. Statistical analysis was performed using a one-way analysis of variance (ANOVA) and a Dunnett's post-hoc analysis with significance reported at the P value of 0.05. All animal experiments were performed in accordance with protocols approved by Purdue University's Institutional Animal Care and Use Committee (IACUC). Rats were scanned in AMI after being anesthetized with isoflurane.

B1: H-AVSEHQLLHDKGKSIQDLRRRELLEKLLxKLHTAEIRATSEVSPNSeeeeeeeeeeeeeeeeeeee (peptide)
chain: H-AVSEHQLLHDKGKSIQDLRRRELLEKLL[Aib]KLHTAEIRATSEVSPNS[dE][dE][dE][dE][dE][dE][dE][dE][dE][dE][dE][dE][dE][dE][dE][dE][dE][dE][dE][dE]
notes: PTHrP fragment conjugated at its C-terminus to a linear peptide of 20 D-glutamic acid residues; x=Aib, e=D-glutamic acid
B1: for the setting “bone graft matrix, eight weeks”, the “change of bone graft granules on micro-CT” value is listed as “the granules resorb”. Further, where the note is “bone graft matrix, eight weeks, SEQ ID NO: 2 33 nmol/kg twice a week, rhBMP-2 10 μg”, the “spinal fusion (manual palpitation)” value is recorded as “no fusion”. Besides, the “spinal fusion (micro-CT)” value (mineralized collagen scaffold, eight weeks of treatment) is “none of the treatments had fused”. The “mineralization of the scaffolds (micro-CT)” value (mineralized collagen scaffold, five weeks of treatment, preliminary results) is on record as “increased the mineralization of the scaffolds more than BMP2 or saline”. Further, the “spinal fusion (micro-CT, manual palpitation)” value by setting is: (eight weeks, SEQ ID NO: 2 33 nmol/kg twice a week) “Fusion was confirmed”; (eight weeks, SEQ ID NO: 2 33 nmol/kg twice a week, listed as SEQ ID NO.: 2) “fused”.
